From patent US20110086767A1, “MUTANTS OF GLYCOSIDE HYDROLASES AND USES THEREOF FOR SYNTHESIZING COMPLEX OLIGOSACCHARIDES AND DISACCHARIDE INTERMEDIATES” (Institut Pasteur, priority 2008, published 2011)
Entries after “also recorded” stand apart in the source; their conditions may differ.

Key:
Type in all cases: biochemical
[1] = Enzymatic glucosylation of D-GlcpNAc derivatives: β-D-GlcpNAc-OMe; settings: sucrose:acceptor 1:1 (146 mM); estimated according to peak areas
Protocol: The mutant F290K and the ASNPwt were tested on other D-GlcNAc derivatives (α-D-GlcpNAc-OMe, β-D-GlcpNAc-OMe, β-D-GlcpNAc-Oallyl and D-GlcNHTCA) used as potential acceptors. The enzymatic reaction was carried out using sucrose as donor and D-GlcNAc derivative as acceptor in a 1:1 ratio (146 mM)
Efficiency of the glucosylation reaction was evaluated by HPLC analysis of the acceptor reaction product synthesized a Biorad HPLC Carbohydrate Analysis column (HPX-87K column (300×7.8 mm))
Percentages of glucosylation rates were estimated according to peak areas as no reference was available.

[2] = HPLC screening of the single-mutant amylosucrase library for glucosylation of D-GlcpNAc; settings: acceptor D-GlcpNAc
Protocol: The protocol was established to enable the rapid identification of clones for which D-GlcpNAc glucosylation was improved. To obtain higher amounts of enzymes and facilitate detection of glucosylated compounds upon HPLC screening, mutants were produced in 96-DeepWell Format plates. Storage microplates containing monomutants were thawed and replicated to inoculate a starter culture in 96-well microplates containing, in each well, 150 μL LB medium supplemented with ampicillin (100 μg/mL). After growth for 24 h at 30° C. under agitation (200 rpm), plates were duplicated into 96-Deep Well plates containing, in each well, 1.1 mL LB medium supplemented with ampicillin (100 μg/mL) and IPTG (1 mM) to induce GST-AS expression. Cultures were then grown for 24 h at 30° C. under agitation (200 rpm). Plates were centrifuged (20 min, 3000 g, 4° C.) and the supernatant was removed. The cell pellet was resuspended in 200 μL of lysozyme (0.5 mg/mL), followed by freezing at −80° C. for 8 to 12 h. After thawing at room temperature, 100 μL of sucrose and 100 μL of acceptor (each at a final concentration of 73 mM) were added to each well. Enzymatic reaction was incubated at 30° C. during 24 h under agitation. The DeepWell plates were then centrifuged (20 min, 3000 g, 4° C.) and 300 μL of the supernatant was transferred to a filter micro-plate (PVDF 0.2 μm) to be clarified. […]
Efficiency of the glucosylation reaction was evaluated by HPLC analysis of the acceptor reaction product synthesized when using D-GlcpNAc as acceptor using a Dionex P 680 series pump, a Shodex RI 101 series refractometer, a Dionex UVD 340 UV/Vis detector and an autosampler HTC PAL. […]
For each of the 7 selected positions, 19 single mutants were generated (corresponding to each possible amino acid change). […] Both sucrose consumption and disaccharide formation were determined in order to calculate the glucosylation rate defined as the molar ratio of monoglucosylated acceptor versus/sucrose consumed.

[3] = Glucosylation of α-D-GlcpNAc-OAll by purified F290D, F290K and ASNPwt (146 mM sucrose + 146 mM acceptor)
Protocol: All assays were performed at 30° C. in 50 mM Tris buffer, pH=7.0. For the acceptor reactions, F290D, F290K and ASNPwt (1G5A) were tested on α-D-GlcpNAc-OAll.
Comparison of products synthesized by wild-type and AS variants. Reactions were performed in the presence of 146 mM sucrose alone or supplemented with 146 mM acceptor. The purified wild-type or mutated GST/AS were employed at 0.5 U/mL. The reactions were stopped by heating at 95° C. for 5 min. The final mixture was centrifuged at 18 000 g for 10 min, filtered on 0.22 μm membrane and analyzed by HPLC, as previously described.
Soluble and insoluble oligosaccharides produced during the reaction were identified by HPAEC using a Dionex Carbo-Pack PA100 column at 30° C. Before analysis, the insoluble fraction was solubilized in KOH at a final total sugar concentration of 10 g/kg. Mobile phase (150 mM NaOH) was set at 1 mL/min flow rate with a sodium acetate gradient (going from 6 to 500 mM within 120 min). Detection was performed using a Dionex ED40 module with a gold working electrode and an Ag/AgCl pH reference. Note that α-D-GlcpNAc-OAll (acceptor) and its derivatives are not oxidable products and thus are not detectable by HPAEC. Sucrose, glucose, fructose, α-D-GlcpNAc-OAll (acceptor) and its derivatives (glucosylation products) were quantified by HPLC, as previously described

[4] = Kinetic parameters towards α-D-GlcpNAc-OAll acceptor; settings: 250 mM for both sucrose and α-D-GlcpNAc-OAll
Protocol: Enzyme assays were carried out in a total volume of 2 mL containing pure enzyme (0.037 mg, 0.076 mg and 0.046 mg when using A289P-F290C, A289P-F2901 and A289P-F290L, respectively).
The kcat/Km (α-D-GlcpNAc-OAll) value was calculated from the initial rate of formation of desired disaccharide (α-D-Glcp-(1→4)-α-D-GlcpNAc-OAll), corresponding to the initial rate of α-D-GlcpNAc-OAll consumed. As saturation was not achieved with the mutants, efficiency was calculated by linear regression analysis of the velocity versus substrate concentration plot.

[5] = Kinetic parameters towards sucrose donor
Protocol: Enzyme assays were carried out in a total volume of 2 mL containing pure enzyme (0.073 mg, 0.153 mg and 0.092 mg when using A289P-F290C, A289P-F2901 and A289P-F290L, respectively).
Kinetic studies of AS variants were performed in the presence of sucrose (0-500 mM). At regular time intervals (2-5 min), aliquots (200 μL) were removed, heated (95° C., 2 min) and centrifuged (18000 g, 5 min) All the samples were filtered on a 0.22 μm membrane and analyzed using HPLC material previously described. The initial rate of sucrose consumed, corresponding to the initial rate of fructose released, was expressed in mole of fructose released per minute and per gram of enzyme. The kinetic parameters kcat and Km were calculated using Eadie-Hofstee plot.

[6] = purified enzyme, Sucrose=Acceptor=146 mM, compared with ASNPwt

B1: F290K: single mutant F290K of N. polysaccharea amylosucrase 1G5A (protein)
chain: SPNSQYLKTRILDIYTPEQRAGIEKSEDWRQFSRRMDTHFPKLMNELDSVYGNNEALLPMLEMLLAQAWQSYSQRNSSLKDIDIARENNPDWILSNKQVGGVCYVDLFAGDLKGLKDKIPYFQELGLTYLHLMPLFKCPEGKSDGGYAVSSYRDVNPALGTIGDLREVIAALHEAGISAVVDFIFNHTSNEHEWAQRCAAGDPLFDNFYYIFPDRRMPDQYDRTLREIFPDQHPGGFSQLEDGRWVWTTFNSFQWDLNYSNPWVFRAMAGEMLFLANLGVDILRMDAVAKIWKQMGTSCENLPQAHALIRAFNAVMRIAAPAVFFKSEAIVHPDQVVQYIGQDECQIGYNPLQMALLWNTLATREVNLLHQALTYRHNLPEHTAWVNYVRSHDDIGWTFADEDAAYLGISGYDHRQFLNRFFVNRFDGSFARGVPFQYNPSTGDCRVSGTAAALVGLAQDDPHAVDRIKLLYSIALSTGGLPLIYLGDEVGTLNDDDWSQDSNKSDDSRWAHRPRYNEALYAQRNDPSTAAGQIYQDLRHMIAVRQSNPRFDGGRLVTFNTNNKHIIGYIRNNALLAFGNFSEYPQTVTAHTLQAMPFKAHDLIGGKTVSLNQDLTLQPYQVMWLEIA
- glucosylation of acceptor β-D-GlcpNAc-OMe [1]: 65-70%
- increase of glucosylation rate compared to the wild type [2]: 45 fold
- maltooligosaccharide formation on addition of acceptor ([3]; 146 mM sucrose supplemented with 146 mM α-D-GlcpNAc-OAll, t=24 h): totally suppressed
- times more efficient for α-D-GlcpNAc-OAll glucosylation [3, 6]: 10 times
- times more efficient to form α-D-Glcp-(1→4)-D-GlcpNAc-OAll [3, 6]: 20 times
- V250mM (initial rate of acceptor consumption) [4]: 6690 µmol/min/g
- V250mM (initial rate of sucrose consumption) ([5]; 250 mM sucrose): 110 µmol/min/g
- behaviour (at high concentration) ([5]; sucrose donor alone): no kinetic saturation; also recorded: linear
